From paper PMC12052392 (PLOS Pathogens, 2025) come the findings set out here.

The chains are these.
B1: nanobody H85 (VHH)
VHH: QLQLVESGGGLVQAGGSLRLSCAASGSTISRHAMGWYRQAPGMQRELVASISSGGTTNYADSVKGRFTISRDSAKNMVYLHMTSLKPEDTAVYYCATKPVHMLTRRLHLGGCTYGMDYWGKGTLVTVSS
notes: not shown: His6, C-terminal, kept
B2: nanobody H8 (VHH)
VHH: QVQLVESGGGLVQTGGSLRLSCAVSRFTLDYGATGWFRQAPGKEREGVSCIGRDDGSTYYAESVKGRFTMSRDKAKNTVYLEMNSLKPEDTAVYYCAADYFARCAANLPNRYLYWGQGTQVTVSS
notes: as for B1
B3: nanobody H23 (VHH)
VHH: EVQVVESGGGWVQAGGSRRLSCAASGFTLDSYAVGWFRQAPGKEREGVSCISGISSSGGTTNYVDSVKGRFTISRDNAKNTVYLQMNSLKPEDTAVYYCAAVRRCFLTTWTPINPYYGMHSWGKGTLVTVSS
notes: as for B1
B4: nanobody H84 (VHH)
VHH: QLQLVESGGGWVQAGGSLRLSCAASGFTLDSYAVGWFRQAPGKEREGVSCISGISSSGGTTNYVDSVKGRFTISRDNAKNTAELQMNSLKPEDTAVYYCTAVRRCFLTTWTPINPYYGMHSWGKGTLVTVSS
notes: as for B1
B5: nanobody H88 (VHH)
VHH: QVQLVESGGGLLQPGGSLRLSCAASGFTLDNYAIGWFRQAPGKEREWVSCISVSDGRTYYADSVQGRFTTSRDNAKNTVYLHLNSLKPEDTAVYSCASRRGRWCTTRSYEYEYWGQGTQVTVSS
notes: as for B1
B6: H102 (VHH)
VHH: QVQLVESGGGLVQPGGSLRLSCTGSGLSLEDYAIGWFRQAPGKDRNWVACIPHKREPLYRDYVRGRFTISRNNTANTVDLQMNSLKPEDTAVYYCTAVRRCFLTTWTPINPYYGMHSWGKGTLVTVSS
B7: H184 (VHH)
VHH: QLQLVESGGGLVQPGGSLTLSCTASVDYYALGWFRQTPEKQREGVSCIGISGQRTFYADSVKGRFNITRDNTRKTAFLQMKDLKPEDTGVYFCAAERGRTVDAMCLKARPDYWGQGTQVTVSS
B8: H43 (VHH)
VHH: EVQVVESGGDLVQAGASLRLSCAAPEPVFISSFGNKYAFGWFRQAPGKQRELVASISGIGNTNYADSVNGRFTISRDNAKNSVYLQMNSLKPEDTAVYYCTAVRRCFLTTWTPINPYYGMHSWGKGTLVTVSS
B9: H6 (VHH)
VHH: QVQLVESGGGLVEAGGSLRLSCTTSGGTLSPYTMGWFRQAPGKGREFVSGISCLGWHSYEGDSVKGRFTISRDNAKNTLYLQMNSLKPEDTAVYYCAASSGCSSTMIDADFTSWGQGTQVTVSS
B10: H45 (VHH)
VHH: QLQLVESGGGSVQSGGSLRLSCLATGRKLDDLVIKWFRQPPGKLREGVACISGSGRTIKYADSVKGRFIISNEYGKNTVYLQMNSLTPDDTAVYYCAAEQILCDRKWYPLGNDYYGQGTQVTVSS
B11: H27 (VHH)
VHH: EVQVVESGGGLVQAGDSLTLSCVAVQGERFFSQYTVGWFRQAPGRERTLVATINYSRETYYSDSAKGRFTISRDNAKNTVYLQMNSLNPEDTATYYCAATRHARISTTITEDRYDYWGQGTQVTVSS
B12: H147 (VHH)
VHH: QVQLVESGGAWVQPGGSLRLSCVASGFTLDYYAVGWFRQAPGKEREGVSCISRRGGESTNYASSVKGRFTISRDSVKNTVYLQMNSLKPEDTAVYYCAAVLRCFSTTWAPINPYYGMHSWGKGTLVTVSS

In the first assay the target is S2 (T1076-Q1208) protein as coated in ELISA (devoid of the His tag) (SARS-CoV-2, MN908947.3, UniProt P0DTC2). Description: ELISA; […], room temperature; […]. The settings on record: both partners purified. Background: ELISA stands for enzyme-linked immunosorbent assay.
Take B1: the binding result is reported as “binds”.
For B2, the binding result is recorded as “binds”.
In the case of B3, the binding result was “binds”.
Take B4: the binding result is “binds”.
In the case of B5, the binding result is “binds”.

A further assay concerns the target SARS-CoV-2 S2 (T1076-Q1208) antigen, trimeric S2 fusion-core-based antigen (SARS-CoV-2 prototype (MN908947.3), UniProt P0DTC2, biotin (Biotinylation Kit)).
Assay: not given
Details: not given
For B6, the binding result is listed as “binds”.
Take B7: the binding result is listed as “binds”.
On to B8, for which the binding result was “binds”.
Regarding B9, the binding result is listed as “binds”.
Same read-out and setting: to B10 belongs “binds”; to B11, “binds”.
Same read-out and setting: the same measure for B12: “binds”.
